The results in this text go back to article PMC5431231, “Identification of a nanobody specific to human pulmonary surfactant protein A” (Scientific Reports, 2017).

As usually defined, the Kd is a measure of binding affinity in units of concentration.

The target of test [1] is T1, human pulmonary SP-A protein in human lung tissue (Homo sapiens, endogenous lung tissue, UniProt Q8IWL2).
Test [2] concerns the target T1, human pulmonary SP-A protein in human …. The test is described as follows: far-Western, overlay or dot blot; human lung tissue homogenate proteins separated by SDS-PAGE, transferred to a PVDF membrane and probed with Nb4 overnight at 4 °C; detected with anti-His-HRP. Particulars: one partner purified.
Test [3] concerns the target T2, recombinant human SP-A protein (pulmonary surfactant protein A) (Homo sapiens, UniProt Q8IWL2).
T2 construct: human pulmonary surfactant protein A; gene provided by Shanghai YouLong Biotech; About 41 kDa on SDS-PAGE, which would fit a fusion with the carrier of the pET32 vector; also called purified recombinant SP-A; PET32-SPA; source: E. coli BL21 (PET32-SPA), purified
In words: BLI; ForteBio's Octet System; Nb4 and purified recombinant human SP-A; who was immobilised is not stated. To be noted: both partners purified. For orientation: BLI is a label-free optical method that tracks binding on a fibre tip over time.

The target of test [4] is T3, SP-A in human lung epithelial A549 cells (Homo sapiens, endogenous in A549 cells, UniProt Q8IWL2).
T3 construct: human pulmonary surfactant protein A, endogenous in A549 cells; source: endogenous, A549 cells, fixed
T3 sequence (Q8IWL2 21-248): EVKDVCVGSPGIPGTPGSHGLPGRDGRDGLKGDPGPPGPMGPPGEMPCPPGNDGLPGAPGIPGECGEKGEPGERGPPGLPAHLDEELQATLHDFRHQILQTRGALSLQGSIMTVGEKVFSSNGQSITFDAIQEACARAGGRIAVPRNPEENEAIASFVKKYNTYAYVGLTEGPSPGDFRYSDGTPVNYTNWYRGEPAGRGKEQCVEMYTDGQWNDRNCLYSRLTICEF
In words: immunostaining of cells or tissue; fixed A549, L-02 and 293T cells stained with Nb4-FITC; confocal microscopy. Particulars: one partner purified.

Like-named read-outs stand apart in the source and are kept apart here.

T1 sequence (Q8IWL2 21-248): as above
T2 sequence (Q8IWL2 21-248): as above

B1: Nb15 (VHH)
VHH: QLQLVESGGGLVQPGGSLSVSCAVRGRDLDYYVIGWFRQAPGKEREGVSCINNSDDTTYYSDSVKGRFTISRDHAKNTVYLQMNNLKPEDTALYYCAADFDRLDFTVKAMCVMKFFYYWGQGTQVTVSS
As for B1, in test [1], the binding result is on record as “binds”.

B2: Nb43 (VHH)
VHH: QLQLVESGGGLVQSGGSLRLSCAASGFTFNDYRMSWVRQAPGKGLEWVSDINSGGSSTYYADSVKGRFTVSRDNAKNTLYLQMNSLKPEDTAIYYCVALLGRGCSGLVQGAFGPWGQGTQVTVSS
For B2, the binding result in test [1] is “binds”.

B3: Nb4 (anti-human pulmonary SP-A nanobody) (VHH)
VHH: QLQLVESGGGLVQPGGSLRLSCAASEFTLDYYEIGWFRQAPGKDREGLSCIGYSDRIAYYSESVKGRFTTVRDDATSTVSLYMDMMIPEDTGTYYCAGSVVEPYELLPAAEYDYWGQGTRVTVSS
notes: About 19 kDa on SDS-PAGE; also called Nb4-His; source: E. coli BL21 (pET-26b (+)-VHH), purified
With B3, the binding result in test [2] is “binds”. Moreover, in test [3], the Kd was 748 nM.

B4: Nb4-FITC (VHH)
VHH: QLQLVESGGGLVQPGGSLRLSCAASEFTLDYYEIGWFRQAPGKDREGLSCIGYSDRIAYYSESVKGRFTTVRDDATSTVSLYMDMMIPEDTGTYYCAGSVVEPYELLPAAEYDYWGQGTRVTVSS
notes: as the VHH chain of m1; Same nanobody as m1, with a FITC label; also called Nb4 labeled with FITC; source: E. coli BL21 (pET-26b (+)-VHH), purified, labeled with FITC
Turning to B4, the binding result in test [4] is recorded as “binds”.

B5: Nb17 (VHH)
VHH: QLQLVESGGGLVQPGGSLRLACAASGFNLDDYADIGWFRQAPGKERERVLCITISDGTTYYEDSGKGRFSISTDIAKNTVFLQMDSLKAEDTAVYYCAGDPAPFCLYNTYVPRTWGQGTQVTVSS
Take B5: the binding result in test [1] was “binds”.

B6: Nb29 (VHH)
VHH: QVKLVESGGGSVQAGGSLRLSCTASGSDYRWMYIARFRQCPGKEREGVAAIYTDDTDDSSPIYATSAKGRFTISQDKDKNAVYLQMNSPKPEDTAMYYCAARAFGGTWSLSSPDDFSAWGQGTQVTVSS
Consider B6, for which the binding result in test [1] is reported as “binds”.

B7: Nb38 (VHH)
VHH: QVKLVESGGGSVQAGGSLILSCTASGSDYRWMYIARFRQCPGKEREGVAAIYTDDTDDSSPIYATSAKGRFTISQDKDKNAVYLQMNSPKPEDTAMYYCAARAFGGTWSLSSPDDFSAWGQGTQVTVSS
Regarding B7, the binding result in test [1] was “binds”.

B8: Nb6 (VHH)
VHH: QLQLVESGGDLAQPGGSLTLSCTASGTFKIYSMGWYRRPQRELVAEMLNGGDTQYSDSVKGRFTISRTNNTMYLHMNNLKPEDTAVYYCNLQDWYSEPAGDYWGPGTQVTVSS
Regarding B8, in test [1], the binding result is “binds”.

B9: Nb11 (VHH)
VHH: QLQLVESGGGLVQPGGSLRLSCTASKFHLDSYAVAWFRQTPGKEREAVSFINTSDDVTYFADSVKGRFTISRDNSKNTVYLQMNVLKPEDTSIYVCAAVRSPGPTGPSMQPMWSVPDLYDYWGQGTQVTVSS
B9: the binding result in test [1] was “binds”.
